The record followed here is the nanobody polyreactivity screen of Harvey et al. (2022).

This data set in a line: yeast display, Sf9 membrane polyspecificity reagent, FACS + sequencing; frameworks hold sequencing errors. The procedure, abridged: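 Nanobodies from a synthetic yeast display library (Saccharomyces cerevisiae BJ5465), induced 36–48 hours with galactose, were stained 1 hour at 4 °C with 10% biotinylated, detergent-solubilized Sf9 membrane reagent, enriched on streptavidin microbeads, then FACS-sorted. Anti-HA (expression) and streptavidin (reagent binding) fluorescence set low and high (top ~1%) gates. Polyreactivity labels come from the gate of origin. Genes were colony-PCR amplified, MiSeq 2 × 250 sequenced and filtered by CDR length.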
Take “QVQLVESRGRLVQAGGSLRLSCAASGSIFGTYAMGWYRHAPGKERELVAAISWSDGSTYYADSVKGRFTISRDNAKYTVYLQMNSLKPEATEVYFCSKVYRSIGANVSRYGLSYYYWGQGTQVTVSS”: the “polyreactivity (PSR sort gate)” value is “low polyreactivity”.
Regarding “QVQLVESGGGLLQAGGSLRLSFAASGRIYWNTMGWYRQAPGKERELVASISTGGGRTYYADSVKGRFTISRDNAKNTVYLQMNSLKPEDTAVYYCNADFISTRPPKATDEDYWGQGTQVTVSS”, the “polyreactivity (PSR sort gate)” value is recorded as “high polyreactivity”.
Turning to “QVQLVESGGGLVQAGGSLRLSCAASGRTIGIYAMGLYRQAPGKERELVAAITWSGDSTYYADSVKGRFTISRDNAKNTVYLQMNSLKPEDTAVYYCAAYYLYRYQTMGYWGQGTLVTVSS”, the “polyreactivity (PSR sort gate)” value is on record as “low polyreactivity”.
In the case of “QVQLVESGGGLVQAGGSLRLSCAASGSTFDYNAMGWYRQAPGKERELVAAITTIGGSTYYADSVKGRFTISRDNAKNTVYLQMNSLKPEDTAVYYCAADLRVWGRSGYDYWGQGTQVTVSS” it was “low polyreactivity”; in that of “QVQLVESGGGLVQAGGSLRLSCAASGRIFSGYAMGWYRQAPGKERELVAAITSRSGSTYYADSVKGRFTISRDNAKNTVYLQMNSLKPEDTAVYYCAAEYVRFYWYTSAYWGQGTQVTVSS”, “low polyreactivity”.
In the case of “QVQLVESGGGLVQAGGSLRLSCAASVRIFGSNVMGWYRQAPGKERELVASISSGGTTYYADSVKGRFTISRDNAKYTVYLQMNSLKPEDTAVYYCAKQWTRIYQYRWYPGTRTGYDYWGQGTQVTVSS” it was “high polyreactivity”.
In the case of “QVQLVESGGGLVQAGGSLRLSCAASGITFRYNAMGWYRQAPGKERELVAAISYSGGSTYYADSVKGRFTISRDNAKNTVYLQMNSLKPEDTAVYYCAARIYSYPRGQYDYWGQGTQVTVSS” it was “low polyreactivity”; in that of “QVQLVESGGGLVQAGGSLRLSCAASGFIFSNNAMGWYRQAPGKERELVAVINGGGSTYYADSVKGRFTISRDNAKNTVYLQMNSLKPEDTAVYYCARKSWPKERRVDPGYDYWGQGTQVTVSS”, “low polyreactivity”; in that of “QVQLVESGGGLVQAGGSLRLSCAASGYIFNRYVMGWYRQAPGKERELVAAITWRGGTTYADSVKGRFTISRDNAKNTVYLLMNSLKPEDTAVYYCAARRYPFEYDYWGQGTQVTVSS”, “high polyreactivity”.
Turning to “QVQLVESGGGLVQAGGSLRLSCASSGFTFIYYAMGWYRQAPGKERELVAAISGSGSTYYADSVKGRFTISRDNAKNTVYLQMNSLKPEDTAVYYCAADVTGGRKYDYWGQGTQVTVSS”, the “polyreactivity (PSR sort gate)” value is “low polyreactivity”.
In the case of “QVQLVESGGGLVHAGGSLRLSCASSGSIFIRNAMGWYRQAPGKERELVASISRSGASTRYADSVKGLFTISRDNAKNTVYLQMNSLNPEDTAVYYCNDVIRRYFVPSSYDYWGQGTQVTVSS” it was “high polyreactivity”; in that of “QVQLVESGGGLVQAGGSLRLSCAASGYIFRYYAMGWYRQAPGKERELVAAISWNGGRTYYADSVKGRFTISRDNAKNTVYLQMNSLKPEDTAVYYCNTYWDGAREYDYWGQGTQVTVSS”, “high polyreactivity”; in that of “QVQLVESGGGLVQAGGSLRLSCAASGSTFSSYAMGWYRQAPGKERELVAAITYSGGSTYYADSVKGRFTISRDNAKNTVYLQMNSLKPEDTAVYYCATRSLFWSFTYYYWGQGTQVTVSS”, “low polyreactivity”.
Turning to “QVQLVESGGGLVQAGVSLRLSCAASGFTFDYYTMGWYRQAPGKEREFVAAITWNGGTTNYADSVKGRFTISRDNAKNTVYLQMNSLKPEDTAVYYCAATAYWYYSNDSGRSYDYWGQGTQVTVSS”, the “polyreactivity (PSR sort gate)” value is on record as “low polyreactivity”.
In the case of “QVQLVESGGGLVQAGGSLRLSCAASGRLFSRYAMGWNRQAPGQQRELVAAITRGGGSTYYADSVKGRFTISRDNAKNTVYLQMNSLKPEDTAVYYCNKASVQYYGDVYWGQGTQVTVSS” it was “high polyreactivity”; in that of “QVQLVESGGGLVQAGGSLRLSCAASGSTFRLYAMGWYRQAPGKERELVAAISSGGTTKYADSVKGRFTISRDNAKNTVYLQMNSLKPEDTAVYYCNRRARSYADDYWGQGTQVTVSS”, “high polyreactivity”.
